Key:
[1] = Calcium EC50 of mitochondrially targeted photoproteins in HEK293T cells without cotransfected GPCR or G protein (Table II); assay type: cell-based; details: no cotransfected GPCR or G protein
Excerpt: In an exemplary experiment, HEK293T cells (ATCC-CRL-11268) were transiently co-transfected with 2 μgs of each of pcDNA3.1-H1 (containing the cDNA encoding the H1 histamine receptor) and pcDNA3.1 containing the cDNAs encoding wild type mitochondrial Clytin (referred to as mt-Clytin), modified mitochondrial Clytin having a lysine to aspartic acid mutation at position 168 (referred to as mt-Clytin K168D), modified mitochondrial Clytin having a lysine to glutamic acid mutation at position 168 (referred to as mt-Clytin K168E), wild-type mitochondrial Obelin (referred to as mt-Obelin) or wild type mitochondrial Aequorin (referred to as mt-Aequorin) using the Targefect-293 reagent (TARGETING SYSTEMS). 48 hours later, the cells were detached using Accutase (MILLIPORE), centrifuged, and resuspended in […] in FreeStyle293 media (INVITROGEN), for incubation for 3-4 hours at room temperature in the dark. After incubation, the cells were centrifuged and resuspended in HBSS/HEPES buffer without Ca^2+ at a density of 1×10^6 cells/ml. Next, 100 μl/well of cell suspension for each transfection were added by the use of a Victor2 luminometer plate reader (WALLAC, […]), to a 96-well plate containing 50 μL/well Triton X-100 in MOPS/KCl buffer containing 10 mM EGTA and a series of Ca^2+ concentrations, such that free calcium concentrations ranged from 17 nM to 39.6 μM, followed by for measurement of total bioluminescence at 20 seconds.
(§1) Signal to background ratio was calculated as the signal induced by maximal GIP (1 μM) divided by the signal induced by buffer alone. The EC50 value for calcium was determined as described above for FIG. 2 for mitochondrially targeted photoproteins transfected into HEK293T cells in the absence of a cotransfected GPCR or G protein. Affinity for calcium was correlated with the properties of the amino acid side chain at residue 168 of Clytin.

[2] = molecular target: T1, GIP Receptor (Homo sapiens, UniProt P48546); assay: GIP receptor-mediated bioluminescence in HEK293T cells with chimeric promiscuous G protein (FIG. 5, Table II); assay type: cell-based; details: for Max signal with GIP (RLU × 10^−5) / EC50: HEK293T cells, GIP Receptor + promiscuous G protein; for EC50: luminescence vs GIP concentration; for % GPCR/total: signal induced by maximal GIP (1 μM) as percentage of signal induced by Triton X-100 with 1 mM Ca^2+; for Signal: background with GIP: signal induced by maximal GIP (1 μM) divided by signal induced by buffer alone
T1 construct: host or cells: HEK293T
T1 sequence (P48546 22-466): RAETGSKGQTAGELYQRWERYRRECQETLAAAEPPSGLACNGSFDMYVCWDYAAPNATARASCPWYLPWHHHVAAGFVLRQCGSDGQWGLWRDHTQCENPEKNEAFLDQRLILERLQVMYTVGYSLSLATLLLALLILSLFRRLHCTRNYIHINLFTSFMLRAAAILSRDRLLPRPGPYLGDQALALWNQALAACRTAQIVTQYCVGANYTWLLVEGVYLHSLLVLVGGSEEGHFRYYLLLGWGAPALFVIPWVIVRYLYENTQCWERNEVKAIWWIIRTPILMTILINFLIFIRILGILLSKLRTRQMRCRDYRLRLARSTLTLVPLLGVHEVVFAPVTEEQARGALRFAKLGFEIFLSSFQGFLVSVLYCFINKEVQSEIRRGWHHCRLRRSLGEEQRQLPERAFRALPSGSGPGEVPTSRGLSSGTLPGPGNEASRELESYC
Experimental: However, coexpression of GIP receptor with a chimeric G protein containing sequences from Gαs and Gαq enable the GIP receptor to stimulate calcium flux.
The results of the dose response curve to varying concentrations of GIP with a subset of the photoproteins are summarized in FIG. 5.
as §1
The EC50 value for receptor-mediated calcium flux induced by the ligand was determined by plotting luminescence (Y-axis) versus ligand concentration applied to the cells (X-axis), and applying a sigmoidal dose-response curve-fitting algorithm (GraphPad Prism). GPCR-mediated signals of the various modified forms of Clytin having an amino acid substitution at position 168 were also related to the nature of the side chain. In addition, the subcellular location of the photoproteins (cytosolic vs mitochondrial) appeared to have an effect on GPCR-mediated signals. […] All of the other mitochondrially targeted mutants except for Clytin K168R and wild-type Clytin yielded results that were in the range of those observed for wt-Aequorin.

B1: Mt-clytin K168S: Mitochondrial K168S modified Clytin, SEQ ID NO:22 (protein)
chain: MSVLTPLLLRGLTGSARRLPVPRAKIHSLPPEGKLRPNFDNPKWVNRHKFMFNFLDINGDGKITLDEIVSKASDDICAKLGATPEQTKRHQDAVEAFFKKIGMDYGKEVEFPAFVDGWKELANYDLKLWSQNKKSLIRDWGEAVFDIFDKDGSGSISLDEWKAYGRISGICSSDEDAEKTFKHCDLDNSGSLDVDEMTRQHLGFWYTLDPNADGLYGNFVP
With B1 the EC50 [1] was 228 nM, the “Max signal with GIP (RLU × 10^−5)” value [2] was 3.84 RLU × 10^−5 and the EC50 [2] was 15.4 nM. For the same molecule, the “% GPCR/total” value [2] was 20.3% and the “Signal: background with GIP” value [2] was 124.1.

B2: Mt-clytin K168G: Mitochondrial K168G modified Clytin, SEQ ID NO:16 (protein)
chain: MSVLTPLLLRGLTGSARRLPVPRAKIHSLPPEGKLRPNFDNPKWVNRHKFMFNFLDINGDGKITLDEIVSKASDDICAKLGATPEQTKRHQDAVEAFFKKIGMDYGKEVEFPAFVDGWKELANYDLKLWSQNKKSLIRDWGEAVFDIFDKDGSGSISLDEWKAYGRISGICSSDEDAEKTFKHCDLDNSGGLDVDEMTRQHLGFWYTLDPNADGLYGNFVP
For B2, the EC50 [1] was 232 nM, the “Max signal with GIP (RLU × 10^−5)” value [2] was 5.09 RLU × 10^−5 and the EC50 [2] was 15.1 nM. For the same molecule, the “% GPCR/total” value [2] was 19.3% and the “Signal: background with GIP” value [2] was 146.8.

B3: Mt-clytin K168N: Mitochondrial K168N modified Clytin, SEQ ID NO:18 (protein)
chain: MSVLTPLLLRGLTGSARRLPVPRAKIHSLPPEGKLRPNFDNPKWVNRHKFMFNFLDINGDGKITLDEIVSKASDDICAKLGATPEQTKRHQDAVEAFFKKIGMDYGKEVEFPAFVDGWKELANYDLKLWSQNKKSLIRDWGEAVFDIFDKDGSGSISLDEWKAYGRISGICSSDEDAEKTFKHCDLDNSGNLDVDEMTRQHLGFWYTLDPNADGLYGNFVP
For B3, the EC50 [1] was 358 nM, the “Max signal with GIP (RLU × 10^−5)” value [2] was 3.82 RLU × 10^−5 and the EC50 [2] was 21 nM. The “% GPCR/total” value [2] was 10.7% and the “Signal: background with GIP” value [2] was 115.9.

B4: Mt-clytin K168Q: Mitochondrial K168Q modified Clytin, SEQ ID NO:20 (protein)
chain: MSVLTPLLLRGLTGSARRLPVPRAKIHSLPPEGKLRPNFDNPKWVNRHKFMFNFLDINGDGKITLDEIVSKASDDICAKLGATPEQTKRHQDAVEAFFKKIGMDYGKEVEFPAFVDGWKELANYDLKLWSQNKKSLIRDWGEAVFDIFDKDGSGSISLDEWKAYGRISGICSSDEDAEKTFKHCDLDNSGQLDVDEMTRQHLGFWYTLDPNADGLYGNFVP
For B4, the EC50 [1] was 335 nM, the “Max signal with GIP (RLU × 10^−5)” value [2] was 4.78 RLU × 10^−5 and the EC50 [2] was 17.4 nM. For the same molecule, the “% GPCR/total” value [2] was 14.2% and the “Signal: background with GIP” value [2] was 125.8.

B5: Mt-clytin K168T: Mitochondrial K168T modified Clytin, SEQ ID NO:24 (protein)
chain: MSVLTPLLLRGLTGSARRLPVPRAKIHSLPPEGKLRPNFDNPKWVNRHKFMFNFLDINGDGKITLDEIVSKASDDICAKLGATPEQTKRHQDAVEAFFKKIGMDYGKEVEFPAFVDGWKELANYDLKLWSQNKKSLIRDWGEAVFDIFDKDGSGSISLDEWKAYGRISGICSSDEDAEKTFKHCDLDNSGTLDVDEMTRQHLGFWYTLDPNADGLYGNFVP
For B5, the EC50 [1] was 174 nM, the “Max signal with GIP (RLU × 10^−5)” value [2] was 4.26 RLU × 10^−5 and the EC50 [2] was 13.4 nM. For the same molecule, the “% GPCR/total” value [2] was 22% and the “Signal: background with GIP” value [2] was 113.4.

B6: Cyto-obelin: Wild-type Obelin (wt-Obelin) amino acid sequence, SEQ ID NO:4; cytosolic (protein, listed as Obelia longissima)
chain: MSSKYAVKLKTDFDNPRWIKRHKHMFDFLDINGNGKITLDEIVSKASDDICAKLEATPEQTKRHQVCVEAFFRGCGMEYGKEIAFPQFLDGWKQLATSELKKWARNEPTLIREWGDAVFDIFDKDGSGTITLDEWKAYGKISGISPSQEDCEATFRHCDLDNSGDLDVDEMTRQHLGFWYTLDPEADGLYGNGVP
In the case of B6, the “Max signal with GIP (RLU × 10^−5)” value [2] is reported as 1.80 RLU × 10^−5, the EC50 [2] is reported as 9.86 nM and the “% GPCR/total” value [2] is reported as 56.7%. The “Signal: background with GIP” value [2] was 47.

B7: K168T (protein)
chain: MADTASKYAVKLRPNFDNPKWVNRHKFMFNFLDINGDGKITLDEIVSKASDDICAKLGATPEQTKRHQDAVEAFFKKIGMDYGKEVEFPAFVDGWKELANYDLKLWSQNKKSLIRDWGEAVFDIFDKDGSGSISLDEWKAYGRISGICSSDEDAEKTFKHCDLDNSGTLDVDEMTRQHLGFWYTLDPNADGLYGNFVP
Work on B7 yielded an EC50 [1] of 174 nM.

B8: wild-type Clytin (protein, listed as Clytia gregaria)
chain: MADTASKYAVKLRPNFDNPKWVNRHKFMFNFLDINGDGKITLDEIVSKASDDICAKLGATPEQTKRHQDAVEAFFKKIGMDYGKEVEFPAFVDGWKELANYDLKLWSQNKKSLIRDWGEAVFDIFDKDGSGSISLDEWKAYGRISGICSSDEDAEKTFKHCDLDNSGKLDVDEMTRQHLGFWYTLDPNADGLYGNFVP
Molecule B8 has an EC50 [1] of 545 nM.

B9: K168G (protein)
chain: MADTASKYAVKLRPNFDNPKWVNRHKFMFNFLDINGDGKITLDEIVSKASDDICAKLGATPEQTKRHQDAVEAFFKKIGMDYGKEVEFPAFVDGWKELANYDLKLWSQNKKSLIRDWGEAVFDIFDKDGSGSISLDEWKAYGRISGICSSDEDAEKTFKHCDLDNSGGLDVDEMTRQHLGFWYTLDPNADGLYGNFVP
For B9, the “Calcium EC50 (nM)” value [1] was “calcium affinities comparable to wild-type Aequorin, however, better than wt-Clytin”.

B10: K168S (protein)
chain: MADTASKYAVKLRPNFDNPKWVNRHKFMFNFLDINGDGKITLDEIVSKASDDICAKLGATPEQTKRHQDAVEAFFKKIGMDYGKEVEFPAFVDGWKELANYDLKLWSQNKKSLIRDWGEAVFDIFDKDGSGSISLDEWKAYGRISGICSSDEDAEKTFKHCDLDNSGSLDVDEMTRQHLGFWYTLDPNADGLYGNFVP
With B10 the “Calcium EC50 (nM)” value [1] was “calcium affinities comparable to wild-type Aequorin, however, better than wt-Clytin”.

B11: Cyto-clytin K168E: K168E modified Clytin amino acid sequence, SEQ ID NO:11; cytosolic (protein)
chain: MADTASKYAVKLRPNFDNPKWVNRHKFMFNFLDINGDGKITLDEIVSKASDDICAKLGATPEQTKRHQDAVEAFFKKIGMDYGKEVEFPAFVDGWKELANYDLKLWSQNKKSLIRDWGEAVFDIFDKDGSGSISLDEWKAYGRISGICSSDEDAEKTFKHCDLDNSGELDVDEMTRQHLGFWYTLDPNADGLYGNFVP
In the case of B11, the “Max signal with GIP (RLU × 10^−5)” value [2] is reported as 6.47 RLU × 10^−5, the EC50 [2] is reported as 7.9 nM and the “% GPCR/total” value [2] is reported as 26.2%. For the same molecule, the “Signal: background with GIP” value [2] was 66.4.

B12: K168E (protein)
chain: MADTASKYAVKLRPNFDNPKWVNRHKFMFNFLDINGDGKITLDEIVSKASDDICAKLGATPEQTKRHQDAVEAFFKKIGMDYGKEVEFPAFVDGWKELANYDLKLWSQNKKSLIRDWGEAVFDIFDKDGSGSISLDEWKAYGRISGICSSDEDAEKTFKHCDLDNSGELDVDEMTRQHLGFWYTLDPNADGLYGNFVP
For B12, the EC50 [1] was 176 nM.

— patent US20110081661A1, “Modified photoproteins with increased affinity for calcium and enhanced bioluminescence and uses thereof” (Millipore Corporation, priority 2009, published 2011)
